In patent US20230331827A1, “POTASSIUM CHANNEL INHIBITORS” (priority 2017, published 2023):
Changes are numbered by the printed parent chain. Names and notes keep the numbering of the source.

B1: KB_C09 Fab (Fab, V domains shown)
VH: EVQLVESGGGLVRPGGSLRLSCAASGFTFSSYAMSWVRQAPGKGLEWVSAISGSGGSTYYADSVKGRFTISRDNTKNSLYLQMTSLRADDTAFYYCVKDFGPGYGTGWFDYWGPGTLVTVSS
VL: AVNWYQQLPGKAPKLLIYAAGRCPRILMRCKQDSDCLAGCVCGPNGFCGGGSGVPDRFSGSIDSSSNSASLTISGLRAEDEADYYCQSYDSSNHWVFGGGTKLTVLG
B2: KB_C10 Fab (Fab, V domains shown)
VH: B1 VH
VL: AVNWYQQLPGKAPKLLIYAAGPCPRILMRCKQDSDCLAGCVCGPNGFCGADSGVSDRFSGSKSGTSASLAITGLQAEDEGDYYCAAWDDSLNGLVFGGGTKVTVLG
B3: KB_A11 Fab (Fab, V domains shown)
VH: B1 VH
VL: YLNWYQQKPGKAPKLLIYAAEICPRILMRCKQDSDCLAGCVCGPNGFCGPSSGIPARFSGSGYGTDFTLTINNIESEDAAYYFCLQHDNFPYTFGQGTKVEIKR
B4: KB_C08 Fab (Fab, V domains shown)
VH: B1 VH
VL: AVNWYQQLPGKAPKLLIYAAAVCPRILMRCKQDSDCLAGCVCGPNGFCGTRSGIPERFSGSKSGTSAFLAISGLRSEDEADYYCAAWDDSLSGVVFGGGTKLTVLG
B5: KB_B02 Fab (Fab, V domains shown)
VH: B1 VH
VL: AVNWYQQLPGKAPKLLIYAAVGCPRILMRCKQDSDCLAGCVCGPNGFCGTGSGIPERFSGSKSGNTASLTISGLQAEDEGDYYCAAWDDSLSGPVFGGGTKLTVLG
B6: KB_C07 Fab (Fab, V domains shown)
VH: B1 VH
VL: AVNWYQQLPGKAPKLLIYAAVGCPRILMRCKQDSDCLAGCVCGPNGFCGSASGVSDRFSGSKSGTSASLAISGLRSEDEADYYCASWDDSLRGYVFGTGTKVTVLG
B7: KB_B01 Fab (Fab, V domains shown)
VH: B1 VH
VL: B6 VL with V21A, S50T, A51R, S86A, G93A, V102L
B8: KB_A12 Fab (Fab, V domains shown)
VH: EVQLVESGGGLVRPGGSLRLSCAASGFTFSSYAMSWVRQAPGKGLEWVSAISGSGGSTYYADSVKGRFTISRDNTKNSLYLQMTSLRADDTAFYYCVDFGPGYGTGWFDYWGPGTLVTVSS
VL: B6 VL with V21G, G22R, S50A, A51N, G60A, S61A, S72N, S86A, R92N, V102L
B9: KB_A12_KTX (antibody)
VH: B1 VH
VL: QSVLTQPPSVSEAPRQRVTITCSGSSSNIGNNAVNWYQQLPGKAPKLLIYAAGRGVEINVKCSGSPQCLKPCKDAGMRFGKCMNRKCHCTPKANSGVSDRFSAAKSGTSASLAINGLRSEDEADYYCAAWDDSLNGYVFGTGTKLTVLGQP
B10: KB_A12_HsTx1 (antibody, V domains shown)
VH: B1 VH
VL: NWYQQLPGKAPKLLIYAAGRASCRTPKDCADPCRKETGCPYGKCMNRKCKCNRCANSGVSDRFSAAKSGTSASLAINGLRSEDEADYYCAAWDDSLNGYVFGTGTKLTVLG
B11: KB_A12_ShK (antibody, V domains shown)
VH: B1 VH
VL: NWYQQLPGKAPKLLIYAAGRRSCIDTIPKSRCTAFQCKHSMKYRLSFCRKTCGTCANSGVSDRFSAAKSGTSASLAINGLRSEDEADYYCAAWDDSLNGYVFGTGTKLTVLG
B12: KB_A12_ADWX1 short (antibody, V domains shown)
VH: B1 VH
VL: NWYQQLPGKAPKLLIYAAGRVKCKHSRQCLKPCKDAGMRFGKCTNGKCHCTPKANSGVSDRFSAAKSGTSASLAINGLRSEDEADYYCAAWDDSLNGYVFGTGTKLTVLG
B13: KB_A12_ADWX1 (antibody, V domains shown)
VH: B1 VH
VL: QSVLTQPPSVSEAPRQRVTITCSGSSSNIGNNAVNWYQQLPGKAPKLLIYAAGRVGINVKCKHSRQCLKPCKDAGMRFGKCTNGKCHCTPKANSGVSDRFSAAKSGTSASLAINGLRSEDEADYYCAAWDDSLNGYVFGTGTKLTVLG
B14: KB_A12_AnTx-N17A/F32T (antibody, V domains shown)
VH: B1 VH
VL: QSVLTQPPSVSEAPRQRVTITCSGSSSNIGNNAVNWYQQLPGKAPKLLIYAAGRQKECTGPQHCTNFCRKAKCTHGKCMNRKCKCTNCKANSGVSDRFSAAKSGTSASLAINGLRSEDEADYYCAAWDDSLNGYVFGTGTKLTVLG
B15: KB_A07_HsTx1 (antibody, V domains shown)
VH: B1 VH
VL: NWYQQKPGKAPKLLIYAAGVASCRTPKDCADPCRKETGCPYGKCMNRKCKCNRCSRSGVPSRFSGSGSGTDFTLTISSLQPEDFATYYCQQGASPPYTFGQGTKVEIKR
B16: KB_A12_Odk2 (antibody, V domains shown)
VH: B1 VH
VL: QSVLTQPPSVSEAPRQRVTITCSGSSSNIGNNAVNWYQQLPGKAPKLLIYAAGRGVPTDVKCRGSPQCIQPCKDAGMRFGKCMNGKCHCTPKANSGVSDRFSAAKSGTSASLAINGLRSEDEADYYCAAWDDSLNGYVFGTGTKLTVLG
B17: KB_A12_HsTx1 R14A (antibody, V domains shown)
VH: B1 VH
VL: B10 VL with R34A
B18: KB_A12_B-gal_F09 (scFv, V domains shown)
VH: B1 VH
VL: AVNWYQQLPGKAPKLLIYAAGRCIATSHIRRHCKQDSDCLAGCVCGPNGFCGANSGVSDRFSAAKSGTSASLAINGLRSEDEADYYCAAWDDSLNGYVFGTGTKLTVLG
B19: KB_A12_B-gal_G05 (scFv, V domains shown)
VH: B1 VH
VL: B18 VL with I24L, A25D, S27V, H28N, I29L, H32R
B20: KB_A12_B-gal_F07 (scFv, V domains shown)
VH: B1 VH
VL: B18 VL with I24R, A25T, S27A, H28N, I29V
B21: KB_A12_B-gal_H07 (scFv, V domains shown)
VH: B1 VH
VL: B18 VL with I24T, A25Q, S27A, H28L, H32R
B22: KB_A12_B-gal_E04 (scFv, V domains shown)
VH: B1 VH
VL: B18 VL with I24L, S27T, H28S, H32P
B23: KB_A12_B-gal_F02 (scFv, V domains shown)
VH: B1 VH
VL: B18 VL with I24R, A25T, H28T, H32R
B24: KB_A12_B-gal_H03 (scFv, V domains shown)
VH: B1 VH
VL: B18 VL with I24N, A25Q, S27M, H28S, H32P
B25: KB_A12_B-gal_E05 (scFv, V domains shown)
VH: B1 VH
VL: B18 VL with I24R, A25E, H28S, I29L, H32P
B26: KB_A12_B-gal_H02 (scFv, V domains shown)
VH: B1 VH
VL: B18 VL with I24E, A25Q, H28V
B27: KB_A12_B-gal_F03 (scFv, V domains shown)
VH: B1 VH
VL: B18 VL with I24L, S27T, H28S
B28: KB_A12_B-gal_F11 (scFv, V domains shown)
VH: B1 VH
VL: B18 VL with I24H, A25E, S27A, H28Q, H32R

What follows are binders tested against trypsin (assay: TRF, 0.6 ug/mL Fab on trypsin).

Compared with B1, B2 is lower in TRF signal: 46800 for the first, 41700 for the second.

Compared with B3, B4 is higher in TRF signal: 48900 for the first, 51100 for the second.

First: B5
Second: B6
The TRF signal of the first is lower: 2340 for the first, 153000 for the second.

Going from B7 to B8, the TRF signal rises from 54800 to 102000.

What follows are binders tested against human Kv1.3 (human) (UniProt P22001) (assay: cell-based or functional assay).
Sequence of human Kv1.3 (human) (P22001 whole entry): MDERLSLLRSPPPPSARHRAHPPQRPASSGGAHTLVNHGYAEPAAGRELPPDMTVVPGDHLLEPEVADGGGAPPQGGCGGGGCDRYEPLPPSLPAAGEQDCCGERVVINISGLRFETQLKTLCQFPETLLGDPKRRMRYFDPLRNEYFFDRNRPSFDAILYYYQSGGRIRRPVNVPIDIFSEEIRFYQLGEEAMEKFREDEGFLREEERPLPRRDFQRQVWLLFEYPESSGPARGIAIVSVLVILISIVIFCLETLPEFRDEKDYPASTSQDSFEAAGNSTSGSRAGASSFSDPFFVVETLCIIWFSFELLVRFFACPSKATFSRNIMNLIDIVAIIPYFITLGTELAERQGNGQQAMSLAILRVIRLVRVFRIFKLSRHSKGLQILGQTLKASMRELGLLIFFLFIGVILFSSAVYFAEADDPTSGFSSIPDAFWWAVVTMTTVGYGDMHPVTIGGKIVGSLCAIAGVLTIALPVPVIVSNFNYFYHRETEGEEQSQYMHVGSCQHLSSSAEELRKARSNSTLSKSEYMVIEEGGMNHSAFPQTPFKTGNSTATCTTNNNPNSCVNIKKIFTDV

Going from B9 to B10, the IC50, huKv1.3 current, QPatch patch clamp falls from 430 nM to 3.9 nM (110-fold).

Compared with B11, B12 is 20-fold higher in IC50, huKv1.3 current, QPatch patch clamp: 8.6 nM for the first, 170 nM for the second.

Going from B13 to B14, the IC50, huKv1.3 current, QPatch patch clamp falls from 270 nM to 85 nM (3.2-fold).

First: B15
Second: B16
The IC50, huKv1.3 current, QPatch patch clamp of the first is 47-fold lower: 4.7 nM for the first, 222 nM for the second.

The binders below were run against trypsin (assay: TRF, 2.4 ug/mL Fab on trypsin).

First: B1
Second: B2
The TRF signal of the first is higher: 205000 for the first, 146000 for the second.

Compared with B3, B4 is lower in TRF signal: 141000 for the first, 131000 for the second.

Compared with B5, B6 is higher in TRF signal: 15900 for the first, 247000 for the second.

First: B7
Second: B8
The TRF signal of the first is lower: 153000 for the first, 222000 for the second.

Biological target: human Kv1.3 (human) (UniProt P22001)
Experiment: cell-based or functional assay
Remark: another data set of the same source

First: B9
Second: B10
The Fold difference (Kv1.1 IC50 against Kv1.3 IC50) of the first is lower: 3 fold for the first, 43 fold for the second.

Going from B11 to B12, the Fold difference (Kv1.1 IC50 against Kv1.3 IC50) rises from 3 fold to 6 fold.

Compared with B14, B16 is lower in Fold difference (Kv1.1 IC50 against Kv1.3 IC50): 94 fold for the first, 6 fold for the second.

Binder B17 has a Fold difference (Kv1.1 IC50 against Kv1.3 IC50) greater than 3500 fold.

First: B9
Second: B11
The IC50, huKv1.3 current, QPatch patch clamp of the first is higher: greater than 10000 nM for the first, 20 nM for the second.

First: B9
Second: B10
The Kv1.3 IC50, QPatch patch clamp of the first is 100-fold higher: 1540 nM for the first, 15 nM for the second.

First: B11
Second: B12
The Kv1.3 IC50, QPatch patch clamp of the first is 19-fold lower: 13 nM for the first, 251 nM for the second.

Going from B14 to B16, the Kv1.3 IC50, QPatch patch clamp rises from 110 nM to 457 nM (4.2-fold).

B17 showed a Kv1.3 IC50, QPatch patch clamp of 0.9 nM.

The binders below were run against human Kv1.1 (human) (UniProt Q09470) (assay: cell-based or functional assay).
Sequence of human Kv1.1 (human) (Q09470 whole entry): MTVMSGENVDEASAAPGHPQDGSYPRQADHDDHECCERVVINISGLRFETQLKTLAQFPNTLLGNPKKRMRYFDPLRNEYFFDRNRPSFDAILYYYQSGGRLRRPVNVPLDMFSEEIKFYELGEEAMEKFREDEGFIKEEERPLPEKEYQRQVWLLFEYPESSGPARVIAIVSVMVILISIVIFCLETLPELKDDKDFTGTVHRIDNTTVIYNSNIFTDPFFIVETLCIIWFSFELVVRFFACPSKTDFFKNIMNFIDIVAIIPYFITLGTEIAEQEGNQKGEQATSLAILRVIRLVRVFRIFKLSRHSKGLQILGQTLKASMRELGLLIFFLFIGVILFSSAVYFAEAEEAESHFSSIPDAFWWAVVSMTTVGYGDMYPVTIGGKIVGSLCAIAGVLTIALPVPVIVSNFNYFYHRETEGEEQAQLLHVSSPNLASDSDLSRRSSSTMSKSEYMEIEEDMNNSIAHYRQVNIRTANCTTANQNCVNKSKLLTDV

First: B9
Second: B10
The Kv1.1 IC50, QPatch patch clamp of the first is 7.4-fold higher: 4800 nM for the first, 650 nM for the second.

Going from B11 to B12, the Kv1.1 IC50, QPatch patch clamp rises from 40 nM to 1400 nM (35-fold).

Compared with B14, B16 is 3.7-fold lower in Kv1.1 IC50, QPatch patch clamp: 10300 nM for the first, 2750 nM for the second.

Binder B17 has a Kv1.1 IC50, QPatch patch clamp of 2990 nM.

What follows are binders tested against β-galactosidase (assay: phage TRF on β-galactosidase).
Sequence of β-galactosidase (P00722 2-1024): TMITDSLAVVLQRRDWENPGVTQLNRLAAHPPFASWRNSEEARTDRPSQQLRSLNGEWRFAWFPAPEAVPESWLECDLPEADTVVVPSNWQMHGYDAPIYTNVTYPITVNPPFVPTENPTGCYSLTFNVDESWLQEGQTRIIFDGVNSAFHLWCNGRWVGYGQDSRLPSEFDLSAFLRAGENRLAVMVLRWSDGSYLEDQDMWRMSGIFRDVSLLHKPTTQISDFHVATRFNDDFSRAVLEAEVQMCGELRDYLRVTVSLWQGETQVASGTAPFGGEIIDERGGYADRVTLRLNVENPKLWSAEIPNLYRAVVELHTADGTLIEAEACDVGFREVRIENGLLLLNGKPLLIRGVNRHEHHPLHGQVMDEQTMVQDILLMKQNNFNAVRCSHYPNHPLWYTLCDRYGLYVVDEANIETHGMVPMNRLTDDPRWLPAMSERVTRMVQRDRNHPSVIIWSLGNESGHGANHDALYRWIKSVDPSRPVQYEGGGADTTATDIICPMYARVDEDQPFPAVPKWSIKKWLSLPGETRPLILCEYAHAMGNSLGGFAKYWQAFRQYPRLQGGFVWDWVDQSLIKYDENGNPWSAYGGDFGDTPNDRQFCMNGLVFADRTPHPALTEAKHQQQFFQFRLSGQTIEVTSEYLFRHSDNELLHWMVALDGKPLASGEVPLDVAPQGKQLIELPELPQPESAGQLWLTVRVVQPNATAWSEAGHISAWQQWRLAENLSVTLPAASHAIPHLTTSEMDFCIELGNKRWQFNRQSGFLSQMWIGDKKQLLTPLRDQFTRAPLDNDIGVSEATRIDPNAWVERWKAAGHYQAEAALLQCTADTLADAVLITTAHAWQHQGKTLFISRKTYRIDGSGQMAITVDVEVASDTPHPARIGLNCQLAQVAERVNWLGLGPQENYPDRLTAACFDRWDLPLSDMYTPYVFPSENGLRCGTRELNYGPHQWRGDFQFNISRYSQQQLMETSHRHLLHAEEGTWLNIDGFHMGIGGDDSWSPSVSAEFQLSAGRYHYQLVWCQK

Going from B18 to B19, the TRF signal rises from 258000 to 529000.

Going from B20 to B21, the TRF signal falls from 246000 to 62000.

Going from B22 to B23, the TRF signal falls from 523000 to 476000.

Compared with B24, B25 is lower in TRF signal: 518000 for the first, 312000 for the second.

Compared with B26, B27 is lower in TRF signal: 501000 for the first, 289000 for the second.

Work on B28 yielded a TRF signal of 531000.

Each binder was assayed against trypsin (assay: TRF, 10 ug/mL Fab on trypsin).

Compared with B1, B2 is lower in TRF signal: 289000 for the first, 238000 for the second.

Compared with B3, B4 is lower in TRF signal: 212000 for the first, 183000 for the second.

Going from B5 to B6, the TRF signal rises from 56600 to 276000.

Compared with B7, B8 is lower in TRF signal: 257000 for the first, 253000 for the second.
